Laboratory results published in patent US20200277385A1.

Assays:
[1] = target: human CD303 antigen expressed on cells (human) (UniProt Q8WTT0); assay: cell-based or functional assay
[2] = target: human CD303 antigen expressed on cells (human) (UniProt Q8WTT0); assay: flow cytometry on CAL-1 cells transfected with CD303 (about 40,000-50,000 CD303/cell)
[3] = target: human CD303 antigen expressed on cells (human) (UniProt Q8WTT0); assay: flow cytometry on CAL-1 cells (experiment with BIIB059)

Chain of human CD303 antigen expressed on cells (human) (Q8WTT0 whole entry): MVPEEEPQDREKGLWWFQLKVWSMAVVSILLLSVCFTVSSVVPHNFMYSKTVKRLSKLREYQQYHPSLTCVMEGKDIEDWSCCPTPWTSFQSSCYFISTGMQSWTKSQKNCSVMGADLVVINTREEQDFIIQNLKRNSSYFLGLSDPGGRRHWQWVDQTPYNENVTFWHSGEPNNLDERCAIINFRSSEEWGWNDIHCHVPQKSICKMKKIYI

ADCC Emax (% lysis), CAL-1 target cells [1]: 1.12 % lysis
Bmax (MFI) [2]: 382 MFI
EC50 [2]: 0.784 µg/mL
Bmax (MFI) [3]: 11.8 MFI
EC50 [3]: 0.6 µg/mL
B1: humanized antibody BIIB059 (antibody, INN chains, looked up, V domains shown)
VH: DVQLVESGGGLVKPGGSLRLSCAASGFTFSTYTMSWVRQAPGKGLEWVATISPGDSFGYYYPDSVQGRFTISRDNAKNSLYLQMNSLRAEDTAVYYCTRDIYYNYGAWFAYWGQGTLVTVSS
VL: DIQLTQSPSSLSASVGDRVTITCKASQSVDYDGDSYMNWYQQKPGKAPKLLIYAASTLESGVPSRFSGSGSGTDFTLTISSLQPEDFATYYCQQANEDPRTFGQGTKVEIK
